Data taken from patent publication US20250376519A1 (JIANGSU HENGRUI PHARMACEUTICALS, published 2025).

Experiments:
[1] = target: T1, monkey DLL3 protein (screening antigen) (cynomolgus monkey, UniProt Q9NYJ7 27-492 (human entry), limits assumed); assay: phage ELISA
T1 chain: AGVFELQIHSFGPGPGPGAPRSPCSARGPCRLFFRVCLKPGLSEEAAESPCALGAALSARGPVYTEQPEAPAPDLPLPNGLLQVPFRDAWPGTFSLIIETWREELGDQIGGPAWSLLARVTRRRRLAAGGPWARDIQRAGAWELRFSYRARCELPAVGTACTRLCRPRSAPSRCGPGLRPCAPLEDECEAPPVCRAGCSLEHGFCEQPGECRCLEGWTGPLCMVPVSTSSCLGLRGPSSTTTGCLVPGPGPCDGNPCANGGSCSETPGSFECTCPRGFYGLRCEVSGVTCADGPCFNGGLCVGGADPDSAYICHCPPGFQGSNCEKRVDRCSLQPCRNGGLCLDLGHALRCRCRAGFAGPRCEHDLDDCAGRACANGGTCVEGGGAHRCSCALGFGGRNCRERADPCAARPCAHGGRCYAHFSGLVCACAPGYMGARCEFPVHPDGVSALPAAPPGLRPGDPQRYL

[2] = target: T2, human DLL3 protein (screening antigen) (human, UniProt Q9NYJ7 27-492, limits assumed); assay: phage ELISA
T2 construct: Biotinylated in the phage panning
T2 sequence: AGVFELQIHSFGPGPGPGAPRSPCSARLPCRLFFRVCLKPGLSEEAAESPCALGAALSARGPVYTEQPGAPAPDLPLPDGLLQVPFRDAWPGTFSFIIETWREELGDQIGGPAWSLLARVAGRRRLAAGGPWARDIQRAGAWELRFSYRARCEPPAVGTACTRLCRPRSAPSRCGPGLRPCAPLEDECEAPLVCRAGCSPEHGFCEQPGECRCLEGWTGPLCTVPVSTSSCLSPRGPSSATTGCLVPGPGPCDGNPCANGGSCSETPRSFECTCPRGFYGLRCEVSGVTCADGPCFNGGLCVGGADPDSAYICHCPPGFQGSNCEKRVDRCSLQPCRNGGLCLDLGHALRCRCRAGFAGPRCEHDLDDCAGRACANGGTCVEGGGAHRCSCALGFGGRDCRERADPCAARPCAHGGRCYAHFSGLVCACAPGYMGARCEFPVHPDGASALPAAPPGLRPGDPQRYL

B1: mAb30 (antibody, V domains shown)
VH: EVRLQQFGPVLVKPGASVKMSCKASGYTFTDYYMNWVKQSHGKSLEWIGIINPYNGDTSYNQKFRGKATLTVDKSSSTAYMELNSLTSEDSAVYYCARYHYGPHLEGYFDVWGTGTTLTVSS
VL: DIVMTQSPKSMSMSVGERVTLSCKASENVGYVSWYQQKPEQSPKLLIYGASNRYTGVPDRFTGSGSATDFTLTISSVQAEDLADYHCGQSYSYPLTFGSGTKLEIK
- binding result [1]: binds
- binding result [2]: binds
